The text below walks through data of US20230071609A1 (Genentech, published 2023).

In test [1] the target is T1, gD-iAPOL1-GPI (construct b, aa 61-398) (human, UniProt O14791 61-398, C-terminal GPI anchor).
T1 construct: Stably expressed on CHO cells under a doxycycline-inducible promoter; also called gD-APOL1-GPI; gD-APOL1-G0-GPI
T1 sequence: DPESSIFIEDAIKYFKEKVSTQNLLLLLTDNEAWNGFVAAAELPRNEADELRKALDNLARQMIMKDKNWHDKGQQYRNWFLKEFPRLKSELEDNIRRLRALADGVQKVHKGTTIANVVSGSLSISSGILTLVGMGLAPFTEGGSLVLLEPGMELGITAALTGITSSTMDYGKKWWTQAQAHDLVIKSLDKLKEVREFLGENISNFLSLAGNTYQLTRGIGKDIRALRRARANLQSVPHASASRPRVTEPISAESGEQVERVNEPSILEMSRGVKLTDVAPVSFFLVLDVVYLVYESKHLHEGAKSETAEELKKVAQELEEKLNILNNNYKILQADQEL
Briefly: flow cytometry, live CHO cells, 5 µg/ml; conformational = only bound to full length APOL1. As to the method:
(§1) Stably transfected live (not fixed or permeabilized) CHO cells expressing the gD-iAPOL1-GPI constructs indicated in FIGS. 1A-1E after induction with 5 μg/ml dox for 48 h, showing differential antibody binding at 5 μg/ml. […] White histograms are Alexa488 anti-mouse or anti-rabbit secondaries only; grey histograms are the anti-APOL1 signals. A representative histogram for each category is shown: 3.7D6 for PFD; 3.3A8 for C-terminus of MAD, 3.5H9 for N-terminus of MAD; 3.1C1 for SRA-ID; 3.2D4 for multi-domain; 3.3F7 for conformational and 3.5B10 for FACS-negative (FACS-ve). The prefix 3 in the name of the antibodies denotes murine monoclonals from Method #3 (as shown in Example 1 below); other antibodies (not illustrated here) starting with the number 4 are murine monoclonals derived from mice additionally boosted with SRA-ID protein; and prefix 5-named antibodies are rabbit monoclonals from Method #5 (Table 2A; and Example 2). […] The Sigma polyclonal (HPA018885, raised to aa 263-387) and the Epitomics rabbit monoclonal (EPR2907(2), raised to an undisclosed peptide) are SRA-ID binders. […]
(§2) Cells were harvested with 5 mM EDTA in PBS, washed once with growth media and twice with PBS. […] Signals were read in a FACSCalibur3 (Becton Dickinson), with the exception of FIG. 8A and FIG. 14, which used a FACSCelesta, and data was analyzed using FlowJo v8.4.5.
(In flow cytometry, cells or beads pass a laser one at a time.)

Test [2] has as its target T2, gD-MAD-SRA-ID-GPI (construct d) (human, UniProt O14791 238-398, C-terminal GPI anchor).
T2 sequence: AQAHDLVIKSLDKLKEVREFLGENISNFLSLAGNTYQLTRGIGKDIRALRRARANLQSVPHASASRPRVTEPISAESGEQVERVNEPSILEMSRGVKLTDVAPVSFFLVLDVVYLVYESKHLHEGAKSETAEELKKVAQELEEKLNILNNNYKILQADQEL
Briefly: flow cytometry, live CHO cells; conformational = only bound to full length APOL1, but not individual domains. As to the method:
(§3) Stably transfected live (not fixed or permeabilized) CHO cells expressing the gD-iAPOL1-GPI constructs indicated in FIGS. 1A-1E after induction with 5 μg/ml dox for 48 h, showing differential antibody binding at 5 μg/ml. […] White histograms are Alexa488 anti-mouse or anti-rabbit secondaries only; grey histograms are the anti-APOL1 signals. A representative histogram for each category is shown: 3.7D6 for PFD; 3.3A8 for C-terminus of MAD, 3.5H9 for N-terminus of MAD; 3.1C1 for SRA-ID; 3.2D4 for multi-domain; 3.3F7 for conformational and 3.5B10 for FACS-negative (FACS-ve). The prefix 3 in the name of the antibodies denotes murine monoclonals from Method #3 (as shown in Example 1 below); other antibodies (not illustrated here) starting with the number 4 are murine monoclonals derived from mice additionally boosted with SRA-ID protein; and prefix 5-named antibodies are rabbit monoclonals from Method #5 (Table 2A; and Example 2). […] The Sigma polyclonal (HPA018885, raised to aa 263-387) and the Epitomics rabbit monoclonal (EPR2907(2), raised to an undisclosed peptide) are SRA-ID binders. Successful APOL1 surface expression of each construct was confirmed with the anti-gD epitope tag (gD-tag) antibody (to Herpes Simplex Virus glycoprotein D).
(§4) Cells were harvested with 5 mM EDTA in PBS, washed once with growth media and twice with PBS. Approximately 0.5×10⁶/m1 of cells resuspended in PBS were incubated with anti-APOL1 antibodies for 1 h on ice. Following two PBS washes, 2 μg/ml of Alexa488 anti-mouse or anti-rabbit (Invitrogen A11029 and A21206, respectively) was used for 1 h on ice for detection. Cells were washed twice in PBS and resuspended in PBS with 1 μg/ml propidium iodide. Signals were read in a FACSCalibur3 (Becton Dickinson), with the exception of FIG. 8A and FIG. 14, which used a FACSCelesta, and data was analyzed using FlowJo v8.4.5.

For test [3], the target named is T3, gD-PFD-MAD-GPI (construct c) (human, UniProt O14791 61-305, C-terminal GPI anchor).
T3 sequence: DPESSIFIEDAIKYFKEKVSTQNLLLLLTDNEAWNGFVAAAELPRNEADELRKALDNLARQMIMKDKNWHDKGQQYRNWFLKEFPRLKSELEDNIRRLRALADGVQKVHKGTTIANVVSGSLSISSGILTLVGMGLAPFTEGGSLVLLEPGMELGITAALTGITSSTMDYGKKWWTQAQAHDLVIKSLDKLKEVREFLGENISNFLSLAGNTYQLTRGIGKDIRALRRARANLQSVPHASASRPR
The test is described as above. How it is done: as §3, §4

In test [4] the target is T4, gD-SRA-ID-GPI (construct e) (human, UniProt O14791 305-398, C-terminal GPI anchor).
T4 sequence: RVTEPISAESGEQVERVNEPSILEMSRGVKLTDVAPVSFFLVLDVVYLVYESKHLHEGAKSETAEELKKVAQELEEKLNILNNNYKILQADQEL
Described as above. As to the method:
as §3, §4

For test [5], the target named is T4, gD-SRA-ID-GPI (construct e). Briefly: flow cytometry, live CHO cells; 3.3A8 is the representative for the C-terminus of MAD. How it is done:
as §1, §2

For test [6], the target named is T5, untagged APOL1-G0, KIK variant, transiently expressed (COS cells) (human, UniProt O14791 29-398).
T5 construct: Origene SC109941 clone with E150K, M228I, R255K
T5 chain: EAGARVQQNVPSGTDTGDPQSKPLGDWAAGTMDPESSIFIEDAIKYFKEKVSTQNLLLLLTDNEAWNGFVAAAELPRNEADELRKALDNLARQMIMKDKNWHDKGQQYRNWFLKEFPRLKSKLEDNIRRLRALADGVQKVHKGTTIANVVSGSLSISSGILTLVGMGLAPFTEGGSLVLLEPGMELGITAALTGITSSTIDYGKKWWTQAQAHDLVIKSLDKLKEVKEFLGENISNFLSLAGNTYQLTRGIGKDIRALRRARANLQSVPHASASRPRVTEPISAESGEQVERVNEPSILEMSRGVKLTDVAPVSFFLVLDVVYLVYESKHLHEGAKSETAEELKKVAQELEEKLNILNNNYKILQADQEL
As to the kind of experiment: immunofluorescence on transfected COS cells, 1 µg/ml; grade.

The target of test [7] is T6, circulating APOL1 in normal human serum (human, UniProt O14791 28-398).
T6 sequence (looked up): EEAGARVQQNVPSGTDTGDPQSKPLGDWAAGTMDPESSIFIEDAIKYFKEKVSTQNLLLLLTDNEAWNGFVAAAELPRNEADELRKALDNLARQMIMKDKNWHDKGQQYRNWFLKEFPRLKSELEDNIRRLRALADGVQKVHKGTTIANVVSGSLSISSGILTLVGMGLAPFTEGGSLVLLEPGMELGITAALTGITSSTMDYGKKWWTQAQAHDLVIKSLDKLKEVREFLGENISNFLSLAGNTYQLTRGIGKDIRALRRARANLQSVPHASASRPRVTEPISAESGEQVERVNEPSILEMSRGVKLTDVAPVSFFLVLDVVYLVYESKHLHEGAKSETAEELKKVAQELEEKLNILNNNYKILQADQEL
Briefly: cell-based or functional assay.

A further test has as its target T7, APOL6-myc-FLAG (human, UniProt Q9BWW8 1-343).
T7 construct: whole, on cells; In fixed, permeabilized transfected COS cells; untagged APOL6 in the western blots; not shown: C-terminal myc-FLAG tag
T7 sequence (looked up): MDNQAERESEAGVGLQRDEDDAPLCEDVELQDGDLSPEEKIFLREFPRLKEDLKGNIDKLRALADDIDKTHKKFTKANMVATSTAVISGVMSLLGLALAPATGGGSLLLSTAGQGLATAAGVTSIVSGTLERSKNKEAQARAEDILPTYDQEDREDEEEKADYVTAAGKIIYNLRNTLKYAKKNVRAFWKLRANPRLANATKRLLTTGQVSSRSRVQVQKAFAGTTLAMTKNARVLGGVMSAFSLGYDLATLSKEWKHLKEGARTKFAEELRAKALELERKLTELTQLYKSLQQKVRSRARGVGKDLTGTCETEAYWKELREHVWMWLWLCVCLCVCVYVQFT
Briefly: immunofluorescence on transfected COS cells; grade. From the text:
COS cells were transfected as in FIG. 31A except APOL1 and APOL2 were also C-terminally myc-FLAG tagged. Overlays of APOL with epitope tags: either mouse anti-FLAG-M2 or mouse anti-myc 9E10 for anti-APOL1 rabmabs; or rabbit anti-Myc 71D10 in conjunction with mouse anti-APOL1. Signals indicate the two antibodies overlap (i.e. anti-APOL1 cross-reacts with that APOL); signals (epitope tag only) indicate no cross-reactivity. Alexa647 anti-rabbit or mouse were used for the tags to rule out the possibility that any colocalization was a bleed-through artifact. Sparsely transfected areas were imaged to permit evaluation of background staining in adjacent untransfected cells—DAPI nuclear staining identifies both untransfected and transfected cell nuclei. […] Note that none of the antibodies cross-reacted with the more distantly related APOL6. *, APOL2-myc-FLAG is presumably misfolded, since it is not as cross-reactive as untagged APOL2 (compare FIG. 31A) with several antibodies. Commercial antibodies are Sigma HPA018885, Epitomics EPR2907 (2) (Epito) and Proteintech 11486-2-AP (Ptech).
Cells were plated on LabTekII (Nalge Nunc 154534) slides and fixed at 70-100% confluency. For mAb screening, cells were fixed/permeabilized for 5 min in −20° C. methanol (EMD MX0485-6). For all other experiments, cells were fixed in 3% paraformaldehyde in PBS (EMS 15710) for 20 mins at room temperature, quenched with 50 mM NH₄Cl in PBS for 10 mins, then permeabilized with 0.1% TX-100 in PBS for 4 mins or for 1h in saponin buffer [0.4% saponin (Sigma S7900), 1% bovine serum albumin (BSA; Sigma A2153), 2% fetal bovine serum (Seradigm) in PBS]. First antibodies (stored sterile at 4° C.) were applied for 1 h at room temperature, at 1 μg/ml for screening on transfected cells or at subsequently optimized concentrations for detecting endogenous APOL1. After 3×10 min washes in PBS (for Methanol or TX-100 protocols) or saponin buffer (saponin protocol), secondary antibodies were applied at 1.88 μg/ml for 1 h at room temperature, washed 3× and mounted under No. 1.5 coverslips in ProLong Gold with DAPI (4′,6-diamidino-2-phenylindole; Life Technologies P36931).

B1: antibody 3.3F7 (antibody, V domains shown)
VH: QVQLKQSGPSLVQPSQSLSITCTVSGFSLTTYGVHWVRQSPGKGLEWLGVIWRGGNTDYNAAFMSRLSITKDNSQSQVFFKMNSLQADDTAIYYCAKSSYGYHYTMDYWGHGTSVTVSS
VL: DIVVTQSHRFMSTSVGDRVIITCKASQNVGTAVAWYQQKPGQSPKLLIYWASTRHTGVPDRFTGSGSGTDFTLTISNVQSEDLADYFCQRYNNFPFTFGSGTKLEIKR
notes: Mouse mAb, cloned as murine IgG2a LALAPG
For the molecule B1, the binding result in test [1] was “binds”; in test [2], “no binding (tested: 5 µg/ml)”; in test [3], “no binding (tested: 5 µg/ml)”; in test [4] it was “no binding (tested: 5 µg/ml)”.

B2: antibody 3.3A8 (antibody, V domains shown)
VH: QVQFQQSGAELVRPGASVKVTCKALGYTFSNYEIHWVRQPPVHGLEWIGAIHPGNGVTAYNQMFKGRATLAADKSSSTAYMELSSLTSEDSAVYYCTENFDYWGQGTALTVSS
VL: DVVVTQTPLSLPVSFGDQVSISCRSSQSLTNSYGITYLSWFLLKPGQSPQLLIYEISNRFSGVPDRFSGSGSGTDFTLKISTIKPEDLGVYFCLQGTHQPFTFGAGTKLEIKR
notes: Mouse mAb, cloned as murine IgG2a LALAPG; also called MAD antibody 3.3A8
With B2, the binding result is reported as “no binding (tested: 5 µg/ml)” in test [5], “binds” in test [6] and “no binding (tested: 1 µg/ml)” in the test with APOL6-myc-FLAG. Moreover, the “IC50 of blocking of serum APOL1-mediated trypanolysis (Alamar Blue)” value in test [7] was 0.4 nM.
